Measurements as given in the MegaScale stability set (Tsuboyama et al. 2023).

B1: r4_43_TrROS_Hall (parent)
chain: DLVTIKVPLENLEEIKKAAEKAGFKIVSISYDKENKEVTIVIEKKK

Variants of: B1
Assay: folding stability dG (cDNA display proteolysis); higher = more stable
Conditions: PBS, room temperature

Point of comparison: DLVTPKVPLENLEEIKKAAEKAGFKIVSISYDKENKEVTIVIEKKK [I5P], “folding stability dG” value 1.48 kcal/mol. Against it:
- DLVTIKVPLENLEEIKKAAEKAGHKIVSISYDKENKEVTIVIEKKK [F24H] — higher, 2.73 kcal/mol
- DLVTIKVPLENLEENKKAAEKAGFKIVSISYDKENKEVTIVIEKKK [I15N] — higher, 3.08 kcal/mol
- DLVTIKVPLENLEEDKKAAEKAGFKIVSISYDKENKEVTIVIEKKK [I15D] — higher, 2.44 kcal/mol
- DLVTIKVPLENLEEFKKAAEKAGFKIVSISYDKENKEVTIVIEKKK [I15F] — higher, 4.13 kcal/mol
- DLVTIKVPLENLEEIKKAAEKAGFKIVSISYDKENAEVTIVIEKKK [K36A] — higher, 3.57 kcal/mol
- DLVTIKVPLENLEEIKKAAEKAGFKIVSISYDKENPEVTIVIEKKK [K36P] — higher, 3.39 kcal/mol
- DLVTIKVPLENLEEIKKAAEKAGFKIVSISYDKENSEVTIVIEKKK [K36S] — higher, 3.46 kcal/mol
- DLVTIKVPLENLEEIKKAAEKAGFYIVSISYDKENKEVTIVIEKKK [K25Y] — higher, 3.88 kcal/mol
- DLVTIKVPLENLEEIKKAAEKAGFAIVSISYDKENKEVTIVIEKKK [K25A] — higher, 3.12 kcal/mol
- DLVTIKVPLENLEEIKKAAEKAGFTIVSISYDKENKEVTIVIEKKK [K25T] — higher, 3.58 kcal/mol
- DLVTIKVPLENLEEIKKNAEKAGFKIVSISYDKENKEVTIVIEKKK [A18N] — higher, 3.5 kcal/mol
- DLVTIKVPLENLEEIKKPAEKAGFKIVSISYDKENKEVTIVIEKKK [A18P] — higher, 1.8 kcal/mol
- DLVTIKVPLENLEEIKKLAEKAGFKIVSISYDKENKEVTIVIEKKK [A18L] — higher, 3.55 kcal/mol
- DLVTIKVPLENLEEILKAAEKAGFKIVSISYDKENKEVTIVIEKKK [K16L] — higher, 3.61 kcal/mol
- DLVTIKVPLENLEEIAKAAEKAGFKIVSISYDKENKEVTIVIEKKK [K16A] — higher, 3.75 kcal/mol
- DLVTIKVPLENLEEIKKAAEKAGFKIVSISYDKENKEVTIVFEKKK [I42F] — higher, 4.17 kcal/mol
- DLVTIKVPLENLEEIKKAAEKAGFKIVSISYDKENKEVTIVTEKKK [I42T] — higher, 3.03 kcal/mol
- DLVTIKVPLENLEEIKKAAEKAGFKIVSISYDKENKEVTIVWEKKK [I42W] — higher, 4.19 kcal/mol
- DLVTIKVPLENLEEIKKAAEKAGFKIVSISYDKENKEVTIVREKKK [I42R] — higher, 2.38 kcal/mol
- DLVTIKVPLENLEEIKKAAEKAGFKIVSVSYDKENKEVTIVIEKKK [I29V] — higher, 3.67 kcal/mol
- DLVTIKVPLENLEEIKKAAEKAGFKIVSQSYDKENKEVTIVIEKKK [I29Q] — higher, 3.28 kcal/mol
- DLVTIKVPLENLEEIKKAAEKAGFKIVSNSYDKENKEVTIVIEKKK [I29N] — higher, 1.97 kcal/mol
- DLVTIKVPLENLWEIKKAAEKAGFKIVSISYDKENKEVTIVIEKKK [E13W] — higher, 4.08 kcal/mol
- DLVTIKVPLENLKEIKKAAEKAGFKIVSISYDKENKEVTIVIEKKK [E13K] — higher, 3.62 kcal/mol
- DLVTRKVPLENLEEIKKAAEKAGFKIVSISYDKENKEVTIVIEKKK [I5R] — higher, 3.1 kcal/mol
- DLVTHKVPLENLEEIKKAAEKAGFKIVSISYDKENKEVTIVIEKKK [I5H] — higher, 3.23 kcal/mol
- DLVTEKVPLENLEEIKKAAEKAGFKIVSISYDKENKEVTIVIEKKK [I5E] — higher, 2.86 kcal/mol
- DLVTIKVPLENVEEIKKAAEKAGFKIVSISYDKENKEVTIVIEKKK [L12V] — higher, 3.56 kcal/mol
- DLVTIKVPLENIEEIKKAAEKAGFKIVSISYDKENKEVTIVIEKKK [L12I] — higher, 3.73 kcal/mol
- DLVTIKVPLENLEEIKKADEKAGFKIVSISYDKENKEVTIVIEKKK [A19D] — higher, 1.76 kcal/mol
- DLVTIKVPLENLEEIKKAPEKAGFKIVSISYDKENKEVTIVIEKKK [A19P] — lower, 1.44 kcal/mol
- DLVTIKVPLENLEEIKKAAEKAGFKIVSISYDKENKEHTIVIEKKK [V38H] — higher, 2.85 kcal/mol
- DLVTIKVRLENLEEIKKAAEKAGFKIVSISYDKENKEVTIVIEKKK [P8R] — higher, 3.27 kcal/mol
- DLVTIKVTLENLEEIKKAAEKAGFKIVSISYDKENKEVTIVIEKKK [P8T] — higher, 3.68 kcal/mol
- DLVTIKVPLENLEEIKKAAEKAGFKIVSISYDKENKEVTIVIIKKK [E43I] — higher, 3.54 kcal/mol
- DLVTIKVPLENLEEIKKAAEKAGFKIVSISYDKENKEVTIVIVKKK [E43V] — higher, 3.63 kcal/mol
- DLVTIKVPLENLEEIKKAAEKAGFKIVSISYDKENKEVTIVIHKKK [E43H] — higher, 3.88 kcal/mol
- DLVTIKVPLENLEEIKKAAEKAGFKIVSISYDKENKEVTIVIESKK [K44S] — higher, 3.49 kcal/mol
- DLVTIKVPLENLEEIKKAAEKAGFKIVSISYDKENKEVTIVIERKK [K44R] — higher, 3.83 kcal/mol
- DLVTIKVPLENLEEIKKAAEKAGFKIVSISYDKENKEVTIVIEAKK [K44A] — higher, 3.79 kcal/mol
- DLVTIKVPLENLEEIKKAAEKAGFKIVSISYDKENKEVTIVIEQKK [K44Q] — higher, 3.52 kcal/mol
- DLVTIKVPLENLEEIKKAAEKAGFKIVSISYDKEWKEVTIVIEKKK [N35W] — higher, 3.75 kcal/mol
- DLVTIKVPLENLEEIKKAAEKAGFKIVSISYDKETKEVTIVIEKKK [N35T] — higher, 3.4 kcal/mol
- DLVTIKYPLENLEEIKKAAEKAGFKIVSISYDKENKEVTIVIEKKK [V7Y] — higher, 3.24 kcal/mol
- DLVTIKHPLENLEEIKKAAEKAGFKIVSISYDKENKEVTIVIEKKK [V7H] — higher, 3.12 kcal/mol
- DLVTIKQPLENLEEIKKAAEKAGFKIVSISYDKENKEVTIVIEKKK [V7Q] — higher, 3.04 kcal/mol
- DLVTIKVPLENLEEIKKAAEKAGFKIVSISYDKENKEVTSVIEKKK [I40S] — lower, 0.271 kcal/mol
- DLVTIKVPLENLEEIKKAAEKAGFKIVSISYDKENKEVTMVIEKKK [I40M] — higher, 3.77 kcal/mol
- DLVTIKVPLENLEEIKKAAEKAGFKIVSISYDKENKEVTHVIEKKK [I40H] — lower, -0.04 kcal/mol
- DLVTIKVPLENLEEIKKAAEKAGFKIVSISYDKENKEVTCVIEKKK [I40C] — higher, 2.81 kcal/mol
- DLVTIKVPLENLEEIKKAAEKAGFKIVSISYDKENKKVTIVIEKKK [E37K] — higher, 3.45 kcal/mol
- DLVTIKVPLENLEEIKKAAEKAGFKIVSISYDKENKNVTIVIEKKK [E37N] — higher, 3.62 kcal/mol
- DLVTIKVPLENLEEIKKAAEKAGFKIVSISYDKENKAVTIVIEKKK [E37A] — higher, 3.75 kcal/mol
- DLVTIKVPLENLEEIKKAAEKAGFKIVSISYDKENKWVTIVIEKKK [E37W] — higher, 3.92 kcal/mol
- DLVTIKVPLENLEEIKKAAEKAGFKIVSISYDKWNKEVTIVIEKKK [E34W] — higher, 3.96 kcal/mol
